Data published in the supplement of paper PMC10567573.
± gives the standard deviation.

Experiment: protein stability index of a GFP-peptide fusion (GPS, HEK-293T) (PSI 1-6); higher = more stable
[1] = treatment: DMSO, c terminus: a fixed tail appended
[2] = treatment: MLN4924 1 uM, 8 h, c terminus: a fixed tail appended
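Further: 24-mer peptide tiles fused after GFP, lentivirally expressed, FACS-sorted into six equal bins by GFP/DsRed ratio, decoded by Illumina sequencing, PSI is the read-weighted mean bin number.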

Row | Sequence | protein stability index [1] | protein stability index [2] | protein stability index (treatment: DMSO, c terminus: native) | protein stability index (treatment: MLN4924 1 uM, 8 h, c terminus: native)
1 | VLFLDHVMYTIHMGCHGFRDPFEC [IKZF1] | 3 ± 0.26 | 2.96 ± 0.49 |  | 
2 | QLKWASWELHSLRHCDDDGRTENG [ZNF24] | 3.83 ± 0.31 | 4.04 ± 0.21 |  | 
3 | QYLALPERAELAASLGLTQTQVKI [DLX1] | 2.95 ± 0.33 | 3.03 ± 0.22 |  | 
4 | PRRCHSAPPQGSCGDELPWTLQRR [PLEKHN1] | 4.79 ± 0.15 | 4.7 ± 0.23 |  | 
5 | HKKKSPGEKPHRCPQCGKCFARKS [ZNF449] | 3.86 ± 0.55 | 4.23 ± 0.43 |  | 
6 | TSYYIRYRGAVYADSGNFKRCINL [FEM1C] | 2.48 ± 0.51 | 2.33 ± 0.57 |  | 
7 | HEVREFKQLIYRVRRTDDTPVVLV [RIT1] | 2.2 ± 0.29 | 2.24 ± 0.16 |  | 
8 | VDRTHALMKKIGQCPMRVQKEVAG [CRYL1] | 3.45 ± 0.36 | 3.65 ± 0.35 |  | 
9 | ENELMISYLMFLQILVYFSFMSW [FAM98B] |  |  | 3.17 ± 0.67 | 3.26 ± 0.33
10 | PYARIQQSRRQCHAEEDQSQVPEA [SMIM2] | 5.3 ± 0.19 | 5.19 ± 0.14 |  | 
11 | TGGVTALCWDPVQRVLFSGSSDHS [WDFY2] | 2.73 ± 0.21 | 2.78 ± 0.59 |  | 
12 | TSNGWGVTDCKHTEDVGVVCSDKR [LOXL2] | 4.57 ± 0.092 | 4.46 ± 0.41 |  | 
13 | PDKKKRPRRSLSISKNKKKASNSI [FAN1] | 4.56 ± 0.2 | 4.76 ± 0.068 |  | 
14 | YTFTDTFTEKLWPLFYPGIRAGRK [TRIM39] | 2.69 ± 0.84 | 2.46 ± 0.5 |  | 
15 | VGEFPIISPGRVYEYTSCTTFSTT [FBXO3] | 2.3 ± 0.22 | 2.33 ± 0.32 |  | 
16 | KEAQYIRTERVEQAFRAIDRGDYY [PCMTD1] | 3.31 ± 0.33 | 3.34 ± 0.28 |  | 
17 | ELQSQLSMKASLEGNLAETENRYC [KRT17] | 3.93 ± 0.25 | 4.18 ± 0.14 |  | 
18 | TRKLSPGKKRCKDIKRLLVNFMYL [SMG5] | 2.53 ± 0.45 | 2.62 ± 0.48 |  | 
19 | VTLLVALKVRYRERITILRGNHES [PPP2CA] | 2.78 ± 0.5 | 2.67 ± 0.44 |  | 
20 | RSLLGYDPQILQMLKEEHQIILEN [RAD54B] | 2.94 ± 0.19 | 3.11 ± 0.21 |  | 
21 | KVHYLFPDGKEMAEEYDEKTSELL [DPCD] | 4.32 ± 0.25 | 4.42 ± 0.12 |  | 
22 | VRKPAEAERYKLERLAEAEKSQLI [FLOT1] | 4.46 ± 0.26 | 4.49 ± 0.14 |  | 

Row | Sequence | protein stability index [1] | protein stability index [2] | protein stability index (treatment: DMSO, c terminus: native) | protein stability index (treatment: MLN4924 1 uM, 8 h, c terminus: native)
23 | NQAPSGPVASSGEFFGSASQPAVE [CLINT1] | 5.16 ± 0.24 | 5.24 ± 0.43 |  | 
24 | GIVVWNMDVERQETPEWLDSDSCQ [WDFY2] | 3.3 ± 0.2 | 3.5 ± 0.32 |  | 
25 | RPHGIFGPRDPQLVPILIEAARNG [NSDHL] | 2.91 ± 0.34 | 3.04 ± 0.24 |  | 
26 | HCHKRRTRSCSSASSRSQQSSKRS [CLK3] | 5.19 ± 0.26 | 5.06 ± 0.063 |  | 
27 | VVTMTTVGYGDMHPVTIGGKIVGS [KCNA3] | 2.33 ± 0.4 | 2.37 ± 0.45 |  | 
28 | IKAVTHQVKFGQQNPRQVAQSEAE [ZC3H15] | 4.86 ± 0.2 | 4.9 ± 0.23 |  | 
29 | LASISTYGFRGEALASISHVAHVT [MLH1] | 2.19 ± 0.48 | 2.19 ± 0.23 |  | 
30 | LDDEDDDEEDCPNPEEYNLDEPNA [SRPK2] | 5.57 ± 0.22 | 5.58 ± 0.24 |  | 
31 | FKGNKYWAVQGQNVLHGYPKDIYS [MMP1] | 2.3 ± 0.21 | 2.46 ± 0.2 |  | 
32 | LRKKILKIRHGWEDVTKINKTEIC [STEAP1] | 2.29 ± 0.47 | 2.56 ± 0.48 |  | 
33 | ELFRIGGKSPDTNYLFMGDYVDRG [PPP2CA] | 2.49 ± 0.39 | 2.48 ± 0.11 |  | 
34 | GFEHYDLFFIDGSTPSDNIVRRFL [CDC14A] | 2.12 ± 0.24 | 2.16 ± 0.25 |  | 
35 | IIHHMRLQAKALQLIVTARTTRGL [INTS4] | 2.5 ± 0.58 | 2.26 ± 0.28 |  | 
36 | VPKDQRLQAIKAAIMLLPDENREV [DLC1] | 3.82 ± 0.18 | 3.85 ± 0.42 |  | 
37 | PILQEGMDEEKLKQLNCVEISALN [DLC1] | 5.08 ± 0.15 | 4.87 ± 0.15 |  | 
38 | LGTKSCSSSCAVHDLIFWRDVKKT [RTN3] | 2.29 ± 0.45 | 2.09 ± 0.33 |  | 
39 | AQAQALAAQAAAAAHAAQAHRERN [PI4K2A] | 4.9 ± 0.076 | 4.8 ± 0.12 |  | 
40 | NWLHRRLAGQFLEELRKFSSLCYK [MOG] | 2.5 ± 0.15 | 2.57 ± 0.27 |  | 
41 | PLGAGNLGPELIKESNANPIFMRK [DPCD] | 4.34 ± 0.27 | 4.54 ± 0.23 |  | 
42 | SSVQSYPGSASLAQSRLEDPGADS [DLX1] | 5.23 ± 0.2 | 5.52 ± 0.24 |  | 
43 | TKVQKKSLLLKKPLRVDLILENTS [NOP53] | 2.71 ± 0.19 | 2.84 ± 0.39 |  | 
44 | TETQRLGLAMALEPNTTFLRKSLK [FANCE] | 4.05 ± 0.19 | 4.14 ± 0.16 |  | 
